Experimental data from patent US20220296727A1, “Immunoconjugate” (DendroCyte BioTech Pty Ltd, priority 2019, published 2022).

Assays:
HEL = test: Cytotoxicity assay on HEL erythroleukemic cell line; assay type: cell-based
Protocol: (§1) Kinetic analysis was performed as above.
DCR-2 and an isotype control mAb were conjugated to a PBD dimer toxin, to assess potential cytotoxicity. The cytotoxicity of DCR-2-PBD and the isotype-PBD were tested against CD300f+ and CD300f− cell lines and the results are shown in FIG. 6 and Table 2.

[1] = system: HSPC colony forming units; test: Colony forming unit toxicity assay, cord blood HSPC; assay type: cell-based, human
Protocol: CFU colonies were plated at 2×10^4 cells/well in semi-solid methylcellulose medium (MethoCult Classic, Stemcell Technologies) in a 24 well plate (Corning, N.Y., USA), were cultured at 37° C. in 5% CO2 for 14 days and counted via microscopy. Whole cord blood PBMC was used. CD34^+ progenitors were continuously exposed to multiple concentrations of DCR-2 with equal concentrations of a secondary goat anti mouse antibody conjugated to PBD dimer. As a control, only the secondary PBD dimer conjugated antibody was used as above.
CB cells, plated at 2×10^4 cells/well in semi-solid methylcellulose medium (MethoCult Classic, Stemcell Technologies) in a 24 well plate (Corning, N.Y., USA), were cultured at 37° C. in 5% CO2 for 14 days when colony forming units (CFU) were scored. DCR-2-PBD or isotype-PBD was added to each well for continuous exposure. Three CB samples were tested with duplicate wells performed in each experiment.

HL-60 cell line = test: Exposure time (kinetic) cytotoxicity on HL-60; assay type: cell-based
Protocol: as §1
The exposure time required for DCR-2-PBD to cause cytotoxicity on the HL-60 cell line was assessed and the results are shown in FIG. 10. The viability of HL-60 cells was reduced to less than 10% within 5 hours of exposure to DCR-2PBD. At 12 hours, greater than 98% of HL-60 proliferation was inhibited while at 24 and 96 hours inhibition was greater than 99%.

[2] = system: CD300f- lymphoma cell line Mino; test: Bystander killing assay; assay type: cell-based
Protocol: as §1
AML surface targets, including CD300f, can be heterogeneously expressed within AML cases and we considered bystander killing advantageous for an effective ADC. To determine whether DCR-2PBD effects cells not expressing CD300f, we investigated bystander killing by comparing the viability of the CD300f− lymphoma cell line Mino cultured on its own, with Mino cultured mixed with HL-60 in the presence of DCR-2-PBD in mixtures of 50% HL-60/50% Mino, and 25% HL-60/75% Mino. Cells were incubated for 96 hours with various concentrations of DCR-2PBD (FIG. 11). […] The reduction in the Mino cells when combined with HL-60 confirm the ability of DCR-2-PBD to generate bystander killing.

dendritic cells = test: Activation marker expression on dendritic cells after LPS; assay type: cell-based, human; conditions: HLA-DR, CD11c, CD80, CD83; 200 pmol
Protocol: The activity of DCR-2PBD on the upregulation of activation markers on DC was measured by incubating whole PBMC with DCR-2PBD or no antibody for […] before washing, followed by 12 hours of LPS stimulation. Control DC were not exposed to DCR-2PBD or LPS. Myeloid DC were gated out by excluding dead cells, Lin^+(CD3, CD20, CD19, CD56, CD14), then gating on HLA-DR^+ and CD11c^+ cells. The activation markers CD80 and CD83 were assessed via flow cytometry. The changes on activation were determined by comparing activated DC incubated with or without DCR-2PBD compared to inactivated DC.
PBMC were incubated in complete RPMI media with or without DCR-2-PBD (200 pmol). After 12 hours, washed cells were incubated for a further 12 hours with or without LPS then phenotyped for the expression of activation markers on DC populations. MoDC were derived from CD14+ monocytes as described previously (Fromm et al. J Leukoc Biol. 2020; 107(2):323-339). DCR-2-PBD or isotype-PBD (200 pmol) were added for 72 hours prior to enumeration of live cells by flow cytometry.

HL-60 cells = test: HL-60 leukemic xenograft model in NSG mice; assay type: in vivo, mouse
Protocol: For the HL-60 leukemic model, NSG mice were irradiated with 200cGy 24 hours prior to intravenous administration of 5×10^6 HL-60 cells. On day 7, mice were injected with DCR-2-PBD, isotype-PBD or PBS and monitored for disease progression and survival. Mice were euthanised when their clinical score was ≥4 or on d70.
On day 7, mice received a single injection of either PBS, or 300 μg/kg of CMRF-81PBD or DCR-2PBD, and their survival monitored.

[3] = system: human HSPC and myeloid cells; test: Humanised (CD34+ engrafted) NSG mouse model; assay type: in vivo; conditions: single dose 300 ug/kg, day 7
Protocol: The humanised mouse model used frozen CD34^+ cells (>95% purity) isolated by positive selection (Miltenyi 130-046-702) according to the manufacturer's instructions from two pooled CB samples. Each NSG mouse was injected with 100,000 CD34+ cells 4 hours after receiving a 150cGy irradiation dose. Engraftment as determined by % human CD45+ cells in venous blood was assessed at 12 weeks. Mice were assigned to treatment groups to have similar means of human CD45+ percentage in the PB (10.16% DCR-2-PBD cohort and 10.74% isotype-PBD cohort). Mice were then injected with 300 ug/kg of DCR-2-PBD or isotype-PBD. Mice were euthanised on day 7 and human CD45+ cells from BM (bilateral femurs and tibias) and 300 μl blood were enumerated and phenotyped by flow cytometry.

B1: DCR-2PBD: anti-CD300f mAb DCR-2 conjugated to pyrrolobenzodiazepine dimer via Cathepsin B-cleavable linker MA-PEG4-VA-PBD; drug to antibody ratio 3.3 (conjugate)
VH: MESGGGLVQPGGPLKLSCAASGFGFSGSWMSWVRQAPGKGLEWIGQINPDSSTINYTPSLKDKFIISRDNAKNTLYLQINKVRSEDTALYYCARRGFFEGYSAWFAYW
VL: ILMTQTPKFLLVSAGDRVTITCKASQSVSNDVAWYQQKPGQSPSLLIYYASNRNTGVPDRFTGSGYETDFTFTISTVQAEDLAVYFCQQDYTSPWTFGGG
IC50 (HEL): 0.544 nM
reduction in total CFUs ([1]; 7.84 pM (p=0.0033)): Significant reductions
inhibition of all major CFU subtypes ([1]; 32.9 pM): inhibited
reduction in total CFUs ([1]; 39.21 pM (p<0.0001)): Significant reductions
inhibition of all major CFU subtypes ([1]; 196.1 pM): inhibited
reduction in total CFUs ([1]; 196.1 pM (p<0.0001)): Significant reductions
HL-60 proliferation inhibited (HL-60 cell line; 12 hours exposure): greater than 98%
HL-60 proliferation inhibition (HL-60 cell line; 24 hours exposure): greater than 99%
HL-60 proliferation inhibition (HL-60 cell line; 96 hours exposure): greater than 99%
time dependent cytotoxicity (HL-60 cell line; incubation up to 96 hours): rapid cytotoxicity
viability of HL-60 cells (HL-60 cell line; within 5 hours of exposure): less than 10%
Mino viability vs Mino only control ([2]; 25% HL-60/75% Mino, 25 pM, 96 hours (p=0.0002)): significant reduction in viability
Mino viability vs Mino only control ([2]; 50% HL-60/50% Mino, 12.5 pM, 96 hours (p=0.0004)): significant reduction in viability
Mino viability vs Mino only control ([2]; 50% HL-60/50% Mino, 25 pM, 96 hours (p<0.0001)): significant reduction in viability
up-regulation of activation markers on dendritic cells after LPS (dendritic cells): does not prevent up-regulation of activation markers
human cells in mice surviving until day 70 (HL-60 cells; 300 ug/kg): No human cells could be detected
animals surviving to the experiment endpoint (HL-60 cells; 300 ug/kg, endpoint day 70): Six of 8
survival compared to isotype-PBD (HL-60 cells; single injection 300 ug/kg on day 7 (p=0.0058)): significantly increased survival
CD34+ cells as percentage of total human CD45+ cells [3]: 3.09%
CD34+CD38-CD90+ cells as percentage of total human CD45+ cells [3]: 0.16%
lymphocytes in the peripheral blood [3]: 208.5 cells/μl
mean CD34+CD38-CD90+ cell count in BM [3]: 0.05×10^4
myeloid cells in the peripheral blood [3]: 0.31 cells/μl
